# Test results from the DeepSol protein solubility set.
# Experiment: soluble on expression in E. coli; label from the status in PepcDB or PDB records
row,Sequence,soluble on expression in E. coli
1,MIHSMTAFSRIQKQFDVGDFCWEIRSVNHRYLDVSFRLPESFRFLEAELRTLLRDKIHRGKLECHLKYKDTSCDNRSMLINIGTINALLDLSSKLSASHHLANDMTVSQVLSWPGVVEANLLDMEELSQIALELFQKSIDKLCEVRAGEGRSLKAYVEDRLQALRQEVMKSKSIVVSMSAKTKDKLLTRLHELQMDVPEARVEQEIALLLAKLDVSEELDRLETHIAEVSRTLNAEKVTGRRLDFLMQELNREANTLSSKSDSAELTLCAVEMKVLIEQMREQIQNFE,not soluble
2,MVDFKLSPSQLEARRHAQAFANTVLTKASAEYSTQKDQLSRFQATRPFYREAVRHGLIKAQVPIPLGGTMESLVHESIILEELFAVEPATSITIVATALGLMPVILCDSPSLQEKFLKPFISGEGEPLASLMHSEPNGTANWLQKGGPGLQTTARKVGNEWVISGEKLWPSNSGGWDYKGADLACVVCRVSDDPSKPQDPNVDPATQIAVLLVTRETIANNKKDAYQILGEPELAGHITTSGPHTRFTEFHVPHENLLCTPGLKAQGLVETAFAMSAALVGAMAIGTARAAFEEALVFAKSDTRGGSKHIIEHQSVADKLIDCKIRLETSRLLVWKAVTTLEDEALEWKVKLEMAMQTKIYTTDVAVECVIDAMKAVGMKSYAKDMSFPRLLNEVMCYPLFDGGNIGLKRRQMQRVMALEDYEPWAATYGSSKVDKSRL,soluble
3,MPNKNGVGKKSPSTSKSSNNNKRREPEFRYEEKTAVHGGKTKYEEKTVVHGGKTKNVVAKKVPSKASVIVDKKASTTETTVPITVKKSLLSISTAYDRTVTEEKEKEKPKKKEKEKWSGEEASIKFVKSLGSINLKDEYDEIQKLPVQTERCKMWQSHSSRNRHNDSKCYDHNRIIVQMCKDDYINGSKINVPHFTPSIYLVQLPKMDSVDAVEEFWRVVFHEQCQTVHIIARPEELTNPAIDKLFCQESGAWLYANGFFVNTRKVEKKENAKADMFVVELLPEGCSNAVMCSVYLHTYWKPLFGPDRFGAQIRAAHQIAKNENGNSPTVIASVNGSGRNAALLTLAVVEDQLTRGKEPKISEIVRTIREQRPQSVDSYIQYVSLYMATNWLIKTKLPSGHEVVSKIKKFNEKATRSLPGSMMKTPTEEL,not soluble
4,MKILVTSGGTSEAIDSVRSITNHSTGHLGKIITETLLSAGYEVCLITTKRALKPEPHPNLSIREITNTKDLLIEMQERVQDYQVLIHSMAVSDYTPVYMTGLEEVQASSNLKEFLSKQNHQAKISSTDEVQVLFLKKTPKIISLVKEWNPTIHLIGFKLLVDVTEDHLVDIARKSLIKNQADLIIANDLTQISADQHRAIFVEKNQLQTVQTKEEIAELLLEKIQAYHSLEHHHHHH,soluble
5,MGSDKIHHHHHHMAKKHRKESLDALFREKVLLEMLKIAGVGMWTYSTETGRLRYIGFADTIHRHDELQYVDPADYLKLMNGEDLQTVTQFMADIHAGRPPQEGIRYKIHGNGEDFYLENHVVTCQPLGNGFYYLKGYVKNITAQVMEANRLCIEKERTEQADRLRSAFFAHVSRELRGPLNRIEELASQMVHAESVEEREECFHRIQENRRMAMKIADALHAVSQLPVSTYEPYHSPMQLCLIYRDLLMENGYSHNPEDGEQEENANFLSLLFS,not soluble
6,GPVNPAENFRVLVKQKKASFEEASNQLINHIEQFLDTNETPYFMKSIDCIRAFREEAIKFSEEQRFNNFLKALQEKVEIKQLNHFWEIVVQDGITLITKEEASGSSVTAEEAKKFLAPKD,soluble
7,MSLVQLYVSDSVSRISFADGRVIVWSEELGESQYPIETLDGITLFGRPTMTTPFIVEMLKRERDIQLFTTDGHYQGRISTPDVSYAPRLRQQVHRTDDPAFCLSLSKRIVSRKILNQQALIRAHTSGQDVAESIRTMKHSLAWVDRSGSLAELNGFEGNAAKAYFTALGHLVPQEFAFQGRSTRPPLDAFNSMVSLGYSLLYKNIIGAIERHSLNAYIGFLHQDSRGHATLASDLMEVWRAPIIDDTVLRLIADGVVDTRAFSKNSDTGAVFATREATRSIARAFGNRIARTATYIKGDPHRYTFQYALDLQLQSLVRVIEAEGHHHHHH,not soluble
8,MSFKDLRSFIDHLEANGELKRISYPVDPHLEMTEIADRVLRAQGPALLFENPTNHSMPVLANLFGTPKRVAMALGKDDPLALREVGELLAFLKEPEPPRGFKDAISKIPMFKQALNMPPKTVRNPACQQVVKTGDDVDLTQLPIQHCWPGDVAPLVTWGLTITKGPRKSRQNLGIYRQQLLGKNKLIMRWLSHRGGALDFADFKEQFPGERYPVVVALGSDPVTILGAVTPVPDAMSEYAFAGLLRGERTEVCKALSCDLEVPASSEIILEGYIDPNEMAEEGPYGDHTGYYNETDKFPVFTVTHITHRKDPIYHSTYTGRPPDEPAMLGVALNEVFVPILRKQYPEIIDFYLPPEGCSYRMAVISIRKQYPGHAKRVMMGAWSFLRQFMYTKFIVVVDDDVNCRDWNDVIWAITTRMDPKRDTVMIDNTPIDYLDFASPVVGLGSKMGLDATNKWEGETNREWGTPIVMDPKVKQKIDSIWDELGIS,soluble
9,MFDFIGNGSAFNTERGNNSAFIKKNSSMILVDCGGTVFHRIKQLNLLQDIKNLYIIITHTHPDHIGSLGDLIFYCYYILKFKPTIIYPNKDIITDFFNIIGVGDEMYELVSDNKVNLTAPEFGDLNIEFIPASHVGVIPAYGFLIGMSDNLVYYSGDGNKLPEKNYKMAGDPLEHHHHHH,not soluble
10,MLVNFIKNFIPHRFYSSKTEIPVVRLHGAIIDSSSSIARTLSLGRCANLLDKAFAYKKAPAVAVIINSPGGSPVQSRLIFKRIRDLAEEKKKQVLMFIEDIAASGGYMIACAGDEIFADPSSIVGSIGVVSASFGFPELLKKIGIERRVYTAGKNKVTLDPFQPEKKTDIEHLKSLQLEVHKTFIDLVKERRAEKLSNDPNIFTGMFWSGKKSVELGLIDGLNDVRSVIKERFGDDTKLRLIIPPKSLFGPKTPSGVTAHAVHTAIDSALMVAQERALWQYYGLLEHHHHHH,soluble
11,MTDQERIELQKNNPLHGLKLETLLQELVDFYGWDILDTAMRFNCFHTKPSIASSVKYLNKTEWAREKLENFYLYRFKRMPRASSEEFTLPPRARTFPHGLHPKEPMALTVDSILKSQAKAASAHKERTSRSRYNQR,not soluble
12,MLKVDGIDVFYGNIHALKGVSLEVNKGEIVTLIGANGAGKTTLLKTISGLLRPKNGDIVYEGASIAGKAAQTIVKQGISHVPEGRRVFANMTVEENLELGAFLRKDKEGIQQDFAKVFQLFPRLEERRKQLAGTLSGGEQQMLAIGRALMARPKLLLLDEPSMGLAPLLVKTIFRIIQEINESGTTILLVEQNAHMALSIAHRAYVLESGRVVLSGTASELQASEQVKQAYLGGH,soluble
13,MEDQDLLEIGILNSGHRQRILQAIQLLPKMRPIGHDGYHPTSVAEWLDSIELGDYTKAFLINGYTSMDLLKKIWEVELINVLKINLIGHRKRILASLGDRLHDDPPQKPPRSITLREPSGNHTPPQLSPSLSQSTYTTGGSLDVPHIIMQGDARRRRNENYFDDIPRSKLERQMAQSSVCEIWTNQNAGFPFSAIHQVHNTGDWGEPSITLRPPNEATASTPVQYWQHHPEKLIFQSCDYKAFYLGSMLIKELRGTESTQDACAKMRANCQKSTEQMKKVPTIILSVSYKGVKFIDATNKNIIAEHEIRNISCAAQDPEDLSTFAYITKDLKSNHHYCHVFTAFDVNLAYEIILTLGQAFEVAYQLALQARKGGHSSTLPESFENKPSKPIPKPRVSIRKSVQIDPSEQKTLANLPWIVEPGQEAKRGINTKYETTIF,soluble
14,MGSDKIHHHHHHMVNNQLELEVKSFLEGQSDFANLPSSEITRLSQVIRKKKIRQGQWIFDQEDEFEYVFLMKEGHVKLFSMNLEGDMTSVSYIVPQMVFPLRGILQGRKYCYNAVAMCTSEVYILPIKEMRKIIVHHYAFTMAFMRRMEHRLHRSEKLLEKTTCSSAAQRVRQVLDYLNEDYAQTHGTVKKVPFKIFLKDLAVLSATTSETAGSVIKAMKEEKKVLYNNKIISFI,not soluble
15,AHHHHHHGSEDIVEALKLAVTNLPEDVALALKNAYEREDYEIAKYNLEIMLRAVKTSKKEKVPLCQDTGTPIFFVETDGTWNVKEIYETIAEAVKRATDEIPLRPNAICLLSGKVVGNVPEIHIEPGKRNRISILIKGGGSENCSALFPLTPGDWFEGVKKKIIDHIRSCGGKPCPPIIVGIGIASPAERAITLAKKSLFRKIGERHEKLGWLEEEILEEINFLDIGPMGLGGKTTALDVKIEVGERHPASFIVGIAIQCWAHRRAFIEEKEDGEVVIWQ,soluble
16,MGSDKIHHHHHHMITSKDNLTLIFVHACGVGNWMWYKQKDYFSNFSCMFIELPEHGDNYNIQPFSVKSAIKMIDKTVRSASGEVVLIGHEMGARLILNYLAEYTNDKVKKIVLSSTMIKTVKEGLFHKILPAKIIEKEFEKKNKNLQNIDFIKKTLDYYGVEEEYKDYYLNDMKRYKPRQLIKIIQEGLLKKLPLNLFIDNDIPALILVGEKETNANRLSAKLLSEYFSNSELIIVDNSTDNHIRTNSMVFNDRVKNFILT,not soluble
17,GMQDERWNHPLYTTTAINDEELEGHAYIPGGLKVQTSSPMNDHPGTNPEQLLGLSLSTCLEATLEAVEKEHGLPHTGAVRVKVAFIGARAEYQFLVHAQVMVKGVDFDTAKAFTNEIENRCPVSKLLKNSGNYTIETVTDFKD,soluble
18,MAKNTSSNAFRKIDVDQYNEDNFREDDGVESAAAGPDESEITTLLTQGKSVEALLSALQNAPLRCKNQNVKDHALNITLRVLLSIKSTQMDQAIDTLDQNDLIDVLMKYIYRGFEIPSEGSSGHLLQWHEKAFAKGGVGCIVRVLSDTNRALEHHHHHH,soluble
19,MSKSNQKIASIEQLSNNEGIISALAFDQRGALKRMMAKHQTEEPTVAQIEQLKVLVAEELTQYASSILLDPEYGLPASDARNKDCGLLLAYEKTGYDVNAKGRLPDCLVEWSAKRLKEQGANAVKFLLYYDVDDAEEINIQKKAYIERIGSECVAEDIPFFLEVLTYDDNIPDNGSVEFAKVKPRKVNEAMKLFSEPRFNVDVLKVEVPVNMKYVEGFAEGEVVYTKEEAAQHFKDQDAATHLPYIYLSAGVSAELFQETLKFAHEAGAKFNGVLCGRATWSGAVQVYIEQGEDAAREWLRTTGFKNIDDLNKVLKDTATSWKQRK,soluble
20,MGSDKIHHHHHHMNEIFVFHGQEVRTVTINNEPWFVGKDVADILGYSKSRNAIALHVDEDDALKQGITDNLGRMQETIIINESGLYSLILSSKLPQVKEFKRWVTSEVLPQIRQQGAYVPENLSDEAFIALFTGQKKLKEHQLALAQDVDYLKNEQPIHPSFAQALLKKRKARVVSCLGGMDSPAYADKVFAQSVFRQAEVDFKDHFNINRYDMLPKKFAEAALSYWMTWEPSTNTKMKILEMNAYEL,not soluble
21,AEMEVQIVRNDPPLRYDTNLPVDLLHMVYAGRGATGSSGVVFGTWYRTIQDRTITDFPLTTRSADFRDGRMSKTFMTALVLSLQACGRLYVGQRHYSAFECAVLCLYLLYRNTHGAADDSDRAPVTFGDLLGRLPRYLACLAAVIGTEGGRPQYRYRDDKLPKTQFAAGGGRYEHGALASHIVIATLMHHGVLPAAPGDVPRDASTHVNPDGVAHHDDINRAAAAFLSRGHNLFLWEDQTLLRATANTITALGVIQRLLANGNVYADRLNNRLQLGMLIPGAVPSEAIARGASGSDSGAIKSGDNNLEALCANYVLPLYRADPAVELTQLFPGLAALCLDAQAGRPVGSTRRVVDMSSGARQAALVRLTALELINRTRTNPTPVGEVIHAHDALAIQYEQGLGLLAQQARIGLGSNTKRFSAFNVSSDYDMLYFLCLGFIPQYLSAV,soluble
22,STREHPPEPLDFFIWTVEDVGSWLEEINLGGYRQIFKENGVNGEYLESMSVFTTEQILHFIRRHHMKWGDFITLCKELRRIKVACLKGEQRVRRPWWAPSCLSVVFVKAAKRNRQSRVVSLKLES,soluble
